In assay [1] the target is vitronectin (UniProt P04004). In words: cell-based or functional assay.
Assay [2] has as its target vitronectin (UniProt P04004). In words: competition binding assay, displacement of [^125I]-IGF-II from VN-coated wells (300 ng/well).

These results are taken from patent publication US7785835.

pIC50: −log10 of the molar value.

Sequence of insulin-like growth factor-II (P01344 25-91 limits assumed): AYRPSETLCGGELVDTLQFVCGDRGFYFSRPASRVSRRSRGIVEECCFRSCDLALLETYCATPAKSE
Sequence of vitronectin (P04004 20-478 limits assumed): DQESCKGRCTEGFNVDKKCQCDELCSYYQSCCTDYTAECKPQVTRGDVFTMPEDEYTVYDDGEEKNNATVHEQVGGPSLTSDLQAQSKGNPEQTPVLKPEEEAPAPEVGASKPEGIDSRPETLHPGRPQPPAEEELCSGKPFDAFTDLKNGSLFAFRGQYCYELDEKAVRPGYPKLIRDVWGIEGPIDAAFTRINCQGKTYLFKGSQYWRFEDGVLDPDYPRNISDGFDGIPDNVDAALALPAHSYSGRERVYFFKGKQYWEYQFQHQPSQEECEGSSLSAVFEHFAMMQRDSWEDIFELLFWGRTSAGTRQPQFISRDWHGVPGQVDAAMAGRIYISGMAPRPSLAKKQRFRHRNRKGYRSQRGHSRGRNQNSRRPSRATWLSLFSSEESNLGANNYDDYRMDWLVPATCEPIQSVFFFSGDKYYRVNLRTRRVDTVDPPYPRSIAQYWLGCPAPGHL

In the assay with vitronectin [1], “insulin-like growth factor-II (from UniProt P01344 25-91) (ligand)” showed an incorporation of [^3H]-leucine into protein in human keratinocytes, % above control; 3 ng IGF-II pre-bound to VN coated wells of 19%; an incorporation of [^3H]-leucine into protein in human keratinocytes, % above control; 10 ng IGF-II pre-bound to VN coated wells of 29%; an incorporation of [^3H]-leucine into protein in human keratinocytes, % above control; 30 ng IGF-II pre-bound to VN coated wells of 39%; an incorporation of [^3H]-leucine into protein in human keratinocytes, % above control; 100 ng IGF-II pre-bound to VN coated wells of 51%. For the same substance, in the assay with vitronectin [1], the incorporation of [^3H]-leucine into protein in human keratinocytes, % above control; 300 ng IGF-II pre-bound to VN coated wells stood at 70%; the incorporation of [^3H]-leucine into protein in human keratinocytes, % above control; 1000 ng IGF-II pre-bound to VN coated wells amounted to 101%; the synergistic effect in protein synthesis above the calculated additive effect of VN alone and IGF-II alone was 5 to 46%. The negative-log IC50 (pIC50) (as a rule, the negative decadic logarithm of the IC50, by convention in mol/L) with vitronectin [2] is 8.02.
